Data taken from the nanobody polyreactivity screen of Harvey et al. (2022).

Assay: yeast display, Sf9 membrane polyspecificity reagent, FACS + sequencing; frameworks hold sequencing errors
Outline: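 Nanobodies came from a synthetic yeast display library in Saccharomyces cerevisiae BJ5465, induced with galactose for 36–48 hours and stained for 1 hour at 4 °C with 10% biotinylated, detergent-solubilized Sf9 membrane reagent. Cells were enriched on streptavidin microbeads and then FACS-sorted, with low and high (top ~1%) gates set on anti-HA fluorescence for expression and streptavidin fluorescence for reagent binding. Each polyreactivity label reflects the gate a clone came from. Genes were amplified by colony PCR, sequenced by MiSeq 2 × 250 and filtered by CDR length.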

| Sequence | polyreactivity (PSR sort gate) |
| --- | --- |
| QVQLVESGGGLVQAGGSLRLSCAASGGTFSQYAMGWYRQAPGKERELVARISRRGGSTSYADSVKGRFTISRDNAKNTVYLQMNSLKPEDTAVYYCAKDAPSVYPGRFGNTGGYAYDYWGQGTQVTVSS | high polyreactivity |
| QVQLVESGGGLVQAGGSLRLSCAASGSTFGYNGMGWYRQAPGKERELVAAISGGARTYADSVKGRFTISRDNAKNTVYLQMNSLKPEDTAVYYCAADSPVSVTADDGYWGQGTEVTVSS | low polyreactivity |
| QVQLEESGGGLVQAGGSLPLICAASGRIFATYAMGWYRQAPGKARELVAAISGRGSSTYYADSVKVRFTISRDNAKNTVYLQMNSLKPEDTAVSYCAAVVRHSFGYDSWGQCTQVTVSS | high polyreactivity |
| QVQLVESGGGLVQAGGSLRLSCAASGSTFWVNAMGWYRQAPGKERELVAAISNSGGSTYYADSVKGRFTISRDNAKNTVYLQMNSLKPEDTAVYYCAAAGGVDYDYWGQGTQVTVSS | low polyreactivity |
| QDQLVESGGGLVQAGGSLRLICAASGSIFDFYTMGWYRQAPGKERELVAAITYSGGRTYYADSVKGRFTISRDNAKNTVYLQMNSLKPEDTAVYYCAASTGSSAYDDYWGQGTQVTVSS | high polyreactivity |
| QVQLVESGGGLVQAGGSLRLSCAASGSTFWYYAMGWYRQAPGKERELVADITISGGSTYYSDSVKGRFTISRDNAKNTVYLQMNSLKPEDTAVYYCATDDTHRVGWFDYWGQGTQVTVSS | low polyreactivity |
| QVQLVESGGGLVQAGGSLRLSCAASGRIFYYYAMGWYRQAPGKEREFVADISARGGSTYYADSVKGRFTISRDNAKNTVYLQMNSLKPEDTAVYYCAATTGLYTRYGYWGQGTQVTVSS | high polyreactivity |
| QVQLVESGGGLVQAGGSLRLSCAASGQKFEYNAMVWYRQAPRKERELVAVITYTYYADSVKGRFTISRDNAKNTVYLLMNCLKPEATAVYYCAVLYSEEILRNDNGVRFDYWGQGTQVTVSS | low polyreactivity |
| QVQLEESGGGLVQAGGSLRLSCAASGYTFYLYAMAWYRQSPGKERELVAAISTNGGRTYYADSVKGRFTISRDNAKNTVYLQMNSLKPEDTAVYYCAVRSRGTAPQYYYWGQGTQVTVSS | high polyreactivity |
| QVQLVESGGGLVQAGVSLRLSCAASGFTFYYYAMVRNRQAPGKERELVAAITGSGGGTYYADSVKGRFTISRDYAKNTVYLQKNSLKPEDTAVYYCNALYVSTSDFVYWGQGTQVTVSS | high polyreactivity |
| QVKLVESGGALVQAGGSLRLSCAASGRNFSSYAMGRYRQAPGKERYLVARISSSGGGTSYADSVKGRFTISRDNAKNTVYLQMNSLKPEDTAVYYCAAEDQYYRYFFSYEYWGQGTQVTVSS | high polyreactivity |
| QVQLVESGGGLVQAGGSLRLSCAASGLTFRWYALGWFRQATGKERELVAAISSGGRTYYADSVKGRFTISRDNANNTVYLQMNSRKPEDTAVYYCNKRTLDYGFGSYGREYWGQGTQVTVSS | high polyreactivity |
| QVQLVESGGGLVQAGGSLRLSCAASGSIFRNYAMGWYRQAPGKEREFVAAISGGGGSTYYADSVKGRFTISRDNAKNTVYLQMNSLKPEDTAVYYCARVRYYGALKLYAYDHWGQGTQVTVSS | high polyreactivity |
| QVQLVESGGGLVQAGGSLRLSCAASGRTFWNYAMGWYRQAPGKERELVAVIRFSDGSTYYADSVKGRFTISRDNAKNTVYLQMNSLKPEDTAVYYCAAKGPRRWGSGFDYWGQATQVTVSS | low polyreactivity |
| QVQLVESGGGLVQAGGSLRLSCSASGSTFGRYAMGWYRQAPGKERELVAAISARGGSTYYADSVKGRFTISRDNAKNTVYLQMNSLKPEDTAVYYCNVDYLLHGGRFDYWGQGTQVTVSS | high polyreactivity |
| QVQLVESGGGLVQAGGSLRLSCAASGRIFSGYTMGWYRQAPGKERELVAAIRVGGGRTYYADSVKGRFTISRDNSKNTVYLQMYSLKPEDTAVYYCAKLYIRHGYDYWGQGTQVTVSS | low polyreactivity |
| QVQLVESGRGLVQAGGSLRLSCAASGSTFRYNTMGSYRQAPGKERELVAAITGGGGSTYYADSVKGRFTISRDNAKNTVYLQMNSMKPEDTAVYYCATRSYALGYDYGGQGTQVTVSS | low polyreactivity |
| QVQLVDSGGGLVQAGGSLRLICAASGSIFGKNAMGWYRQAPGKERELVAAISKRGGTTYYADSVKGRFTISRDNAKNTFYLLMNSLKPEDTAVYYCAAYYYVHRSSHYLSPYDFWGQVTQVTVSS | high polyreactivity |
| QVQLVESGGGLVQAGGSLRLSCAASGITFYGYAMGWYRQAPGKERELVARITISGRTNYADYVKGRFTISRDNAKNTVYLQMNSLKPEDTAVYYCATLVHWSYPYYYWGQGTQVTVSS | high polyreactivity |
| QVQLVESGGGLVQAGGSLRLSCAASGRIFAWYAMGWYRQAPGKERELVAGISWIGGSTYYADSVKGRFTISRDNAKNTVYLQMNSLKPEDTAVYYCNARKKPGSRLDIIGYDYWGQGTQVTVSS | low polyreactivity |
| QVQLVESGGGLVQAGGSLRLSCAASGFIIIGNAMVWYRQAPGKERELVAAISRRGGSTYYADSVKGRFTISRDNAKNTVYLQMNSLKPEDTAVYYCATDPGARVHYPTGDYWGQGTQVTLSS | high polyreactivity |
| QVQLVESGGGLVQAGGSLRLSCAASGSIFQPYAMGWYRQAPGKEWELVAAISRGGTTYYADSVKGRFTISRDNAKNTVYLQMNSLNPEDTAVYYCAVKGYRYVTRYDYWGQGTQVTVSS | high polyreactivity |

| Sequence | polyreactivity (PSR sort gate) |
| --- | --- |
| QVQLLESGGGLVQAGGSLRLSCAAYGSTFGYNDMGWYRQAPGKVRELVAAITRRSGSTYYADSVKGRFTISRDNAKNSVNLQMNSLKPEDTAVYYCAASYHYGDRWPIRMDYWGQGTQVTVSS | low polyreactivity |
| QVQLVESGGGVVQAGGSLRLSCAASGSNFDRNAMGWYRQAPGKERELVAAISRSGGSTNYADSVKGRFTISRDNAKNTFYLQMNSLKPEVTAVYYCAAVRTHWFGQGWAVYWFEYWGQGTQVTVSS | low polyreactivity |
| QVQLVESGGGLVQAGGSHRLSCAASGRTFWYYTMGWYRQAPGKERELVAAINWRGGTTYYADSVKGRFTISRDNAMNTVYLQMNSLKPEDTAVYYCAATHWAYSRVPYDYWGQGTQVTVSS | high polyreactivity |
| QVQVVESGGGLVQAGGSLRLSCAASGSTFSIYAMGCYRQAPGKERELVAAISSSGGSTYYADSVKGRFTISRDNGKNTVYLQMNSLKPEDTAVYYCNKRKYHVRYDYWGQGTQVTVSS | low polyreactivity |
| QVQLVESGGGLFQAGGSLRLSCAASGFTFRANAMGWYRQAPGKERELVAVITGSGRTYYADSVKGRFTISRDNAKNTVYLQMNSLKPEDTAVYYCAARAAYRVSSPGYDSWGQGTQVTVSS | high polyreactivity |
| QVQLVESGGGLVQAGGSLRLSCAASGRTFDVYAMGWYRQAPGKERELVATIRSDGSTTYADSVKGRFTISRDNAKNTVYLQMTSLKPEDTAVYYCAADFRSGFSSSTTPVQSDWGQGTQVTVSS | low polyreactivity |
| QVQLVESGGGLVQAGGSLRLSCAASGLIIDGYAMGWSRQAPGKERELVATITVSGTSTYYADSVKGRFTISRDNAKNTVYLQMNSLKPEDTAVYYCDTDRNYGYYFVEYDHDYWGQGTQVTVSS | low polyreactivity |
| QVQLVESGGGLVQAGGSLRLSCAASGLTFGLNAMGWYRQAPGKERELVAAITWSGGSTYYADSVKGRFTISRDNAKNTVYLQMNSLKPEDTAVYYCATDNWSVNGGYNYWGQGTQVTVSS | low polyreactivity |
| QVQLVESGGGLVQAGCSLRLICAASGLYAMGWYRQAPGKERELVADINSSGGSITNYADSVKGRFTISRDNAKNTVYLQMNSLKPEDTAVYDCAAPALGNYFYGYDYWGQGTQVTVSS | low polyreactivity |
| QVQLVESGGGLVQAAGSLRLSCAASGSIFIQYAMGWYRQAPGKERELVAAITRRGGRTYYADSVKGRFTISRDNAKNTVYLQLNSLKPEDTAVYYCNAVPIGQWAYDYWGQGTQVTVSS | high polyreactivity |
| QVQLVESGGGLVQAGGSLRLSCAASGSIYRYTMGWYRQAPGKERELVASISLSGGRTYYADSVKGRFTISRDNAKNTVYLQMNSLKPEDTAVYDCGTDNRYRSSGQWIRRGYWGQGTQVTVSS | high polyreactivity |
| QVQLVESGGGLVQAGGSLRLSCAASGGIFVFYAMGWYRQAPGKERELVAAIRYGGSSTYYADSVKGRFTISRDNAKNTVYLQMNSLKPEDTAVYYCAAEHYSVYDPIGDYWGQGTQVTVSS | low polyreactivity |
| QVQLVESGGGLVQAGGSLRLSCAASGSIFSDYTMGWYRQAPGKERELVAAISGIGGSTYYADSVKGRFTISRDNAKNTVYLQMNSLKPEDTAVYYCAADDYYYPYVSHDYWGQGTQVTVSS | low polyreactivity |
| QVQLVESGGGLVQAGGSLRLSCAASGRTFWPYAMGWYRQAPGKERELVAAINWGGGSTYYADSVKGRFTISRDNAKNTVYLQMNSLKPEDTAVYYCAADVGRNKMDYWGQGTQVTVSS | low polyreactivity |
| QVQLVESGGVLVQAGGSLRLSCAASGYIFEGNAMGWYRQAPGKERDFVAAITKRGGSTYYADSVKGRFTISRDNAKNTVYLQMNSLKPEDTAVYYCAADRSYPRAGRYDYWGQVTQVTVSS | low polyreactivity |
| QVQLVESGGGLVQAGGSLRLSCAASGSTFHPNGMGWYRQAPGKERELVAAIRRSGGSTYYADSVKGRFTISRDNAKNTVYLQMNSLKPEDTAVYYCAAKHYYYSPYVRYDPPPGYYWGQGTQVTVSS | high polyreactivity |
| QVQLVESGGGLVQAGGSLRLSCAASGSIFEGYVMGWYRQAPGKERELVATISFSGGSTYYADSVKGRFTISRDNAKNTVYLQMNSLKPEDTAVYYCNALVYHTKGDYGYWGHGTQVTVSS | low polyreactivity |
| QVQLVESGGGLVQAGGSLRLSCAASGRTFRGYVMGWYRQAPGKERELVAAISKSGGSTYYADSVKGRFTISRDIAKNTVYLQMNSLKPEDTAVYYCNALPRTQYDYWGQGTQVTVSS | low polyreactivity |
| QVQLVESGGGLVQAGGSLRLSCAASGSIFQPNMGWYRQAPGKERELVASITTGTTKYADSVKGRFTISRDNAKNTVYLQMNSLKPEDTAVYYCAADLQATVYLIFGYWGQGTQVTVSS | low polyreactivity |
| QVQLVESGGGLVQAVCSLRLICAASGLTFGGYSMGWYRQAPAKERELVAAISRSCGSTYYADSVKGRFTISRDNAKNTVFLQMNSLKPEDTAVYYCNAGRDTKYDYWGQGTQVTVSS | low polyreactivity |
| QVQLVESGGGLVQAGGSLRLSCAASGSTFRRYTMGWYRQAPGKERELVAAISRSAGSTSYADSVKGRFTISRDNAKNTVYLQMNSLKPEDTAVYYCNARVPLRQYSNYYWGQGTQVTVSS | high polyreactivity |
